Assay [1] concerns the target T1, recombinant IL-2Rβγ heterodimer (human).
T1 construct: IL-2Rβ ECD at the N-terminus of Fc hole chain, γc ECD at the N-terminus of Fc knob chain; also called recombinant IL-2Rβγ protein; dimeric IL-2Rβγ receptor
T1 chain 1: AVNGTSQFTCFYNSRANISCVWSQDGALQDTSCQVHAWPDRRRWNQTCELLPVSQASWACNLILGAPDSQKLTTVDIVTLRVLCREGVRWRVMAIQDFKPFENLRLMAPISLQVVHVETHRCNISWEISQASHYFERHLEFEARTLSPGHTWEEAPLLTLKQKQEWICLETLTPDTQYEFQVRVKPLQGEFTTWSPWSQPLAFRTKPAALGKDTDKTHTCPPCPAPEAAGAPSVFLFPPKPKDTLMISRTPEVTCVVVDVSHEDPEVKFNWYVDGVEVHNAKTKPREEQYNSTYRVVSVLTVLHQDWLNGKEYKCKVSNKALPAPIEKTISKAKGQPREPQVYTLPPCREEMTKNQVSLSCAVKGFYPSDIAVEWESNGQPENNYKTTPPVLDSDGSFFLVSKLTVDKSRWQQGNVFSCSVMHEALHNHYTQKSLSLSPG
T1 chain 2: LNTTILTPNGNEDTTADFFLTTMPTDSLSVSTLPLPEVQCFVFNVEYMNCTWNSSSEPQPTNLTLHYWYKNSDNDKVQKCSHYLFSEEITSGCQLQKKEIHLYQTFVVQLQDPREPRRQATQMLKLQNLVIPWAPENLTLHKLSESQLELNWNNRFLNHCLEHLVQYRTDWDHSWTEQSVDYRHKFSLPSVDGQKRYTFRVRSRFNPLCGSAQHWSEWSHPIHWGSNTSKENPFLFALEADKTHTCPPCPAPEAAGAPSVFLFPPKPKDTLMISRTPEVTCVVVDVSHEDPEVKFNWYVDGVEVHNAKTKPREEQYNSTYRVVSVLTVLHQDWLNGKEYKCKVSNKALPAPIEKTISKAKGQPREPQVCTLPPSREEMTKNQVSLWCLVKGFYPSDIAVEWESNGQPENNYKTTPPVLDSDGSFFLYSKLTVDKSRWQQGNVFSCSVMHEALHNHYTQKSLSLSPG
As to the kind of experiment: ELISA, IL-2Rβγ-Fc heterodimer coated. The method, then: After overnight incubation at 4° C. and blocking with 1% BSA, 3-fold serial dilutions of IL-2 Fc fusion proteins starting at 10 nM were added to each well at 100 μl/well. […] Subsequently, 100 μl/well of streptavidin-HRP (1:5000 diluted in diluent) were added to each well and incubated at room temperature for 40 min. Wells were thoroughly aspirated and washed three times with PBS/0.05% Tween-20 following each step. Finally, 100 μl TMB substrate was added to each well; the plate was developed at room temperature in the dark for 10 minutes, and 100 μl/well of stop solution (2N Sulfuric acid, Ricca Chemical) was added. Absorbance was determined at 450 nm and curves were fit using Prism software (GraphPad).
Background: ELISA stands for enzyme-linked immunosorbent assay.

Assay [2] deals with T2, PD1 expressed on cell surface (UniProt Q15116 25-288, limits assumed).
T2 construct: whole, on cells; also called PD-1-expressing cells; cell surface expressed PD-1
As to the kind of experiment: FACS on PD-1-expressing cells.

T2 sequence (Q15116 25-288 limits assumed): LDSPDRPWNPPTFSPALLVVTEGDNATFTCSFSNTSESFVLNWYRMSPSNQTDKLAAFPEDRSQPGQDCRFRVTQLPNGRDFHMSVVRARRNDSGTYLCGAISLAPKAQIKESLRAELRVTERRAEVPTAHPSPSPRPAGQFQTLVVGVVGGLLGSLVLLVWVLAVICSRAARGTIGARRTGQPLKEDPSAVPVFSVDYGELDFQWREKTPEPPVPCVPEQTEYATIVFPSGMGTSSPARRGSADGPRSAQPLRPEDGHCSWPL

B1: P-0759 (Fc fusion)
chain 1: DKTHTCPPCPAPEAAGAPSVFLFPPKPKDTLMISRTPEVTCVVVDVSHEDPEVKFNWYVDGVEVHNAKTKPREEQYNSTYRVVSVLTVLHQDWLNGKEYKCKVSNKALPAPIEKTISKAKGQPREPQVCTLPPSREEMTKNQVSLWCLVKGFYPSDIAVEWESNGQPENNYKTTPPVLDSDGSFFLYSKLTVDKSRWQQGNVFSCSVMHEALHNHYTQKSLSLSPGGGGSGGGSAPTSSSTKKTQLQLEHLLQDLQMILNGINNYKNPKLTRMLTFKFYMPKKATELKHLQCLEEELKRLEEVLNLAQSKNFHLRPRDLISNINVIVLELKGSETTFMCEYADETATIVEFLNRWITFIQSIISTLT
chain 2: DKTHTCPPCPAPEAAGAPSVFLFPPKPKDTLMISRTPEVTCVVVDVSHEDPEVKFNWYVDGVEVHNAKTKPREEQYNSTYRVVSVLTVLHQDWLNGKEYKCKVSNKALPAPIEKTISKAKGQPREPQVYTLPPCREEMTKNQVSLSCAVKGFYPSDIAVEWESNGQPENNYKTTPPVLDSDGSFFLVSKLTVDKSRWQQGNVFSCSVMHEALHNHYTQKSLSLSPG
notes: knob chain carries the IL-2 variant; hole-Fc; monovalent; also called IL-2 L19Q/P65R/S125I monovalent Fc fusion
Regarding B1, the binding result in assay [1] is “binds”; in assay [2] it was “no binding”.
